Assay [1] addresses T1, recombinant TcpC (Toll/interleukin-1 receptor domain-containing protein encoded by E. coli) (uropathogenic E. coli (UPEC), UniProt A0A0H2V8B5 1-307).
T1 construct: TcpC, TIR domain-containing virulence factor of uropathogenic E. coli; called 'the full length rTcpC protein'; predicted TIR domain 171-304 aa; Only the vector pET42a is named; Depending on the cloning sites it may also add an N-terminal GST and S-tag; CFT073 is surmised; also called rTcpC; rTcpC prototype; source: E. coli BL21DE3 transformed with pET42a-tcpc, purified, LPS-free
The experiment in a line: ITC; 1 uM rTcpC in PBS in the titration pool, 0.1 uM UBE2D1 or rMyD88 in PBS in the sample pool; VP-ITC microcalorimeter. Particulars: both partners purified. Background: ITC needs no label: the signal is the heat of the interaction.

The target of assay [2] is T1, recombinant TcpC (Toll/interleukin-1 …). Nature of the assay: SPR; 1 nM UBE2D1 cross-linked on an activated CM5 chip; 0.05-0.8 nM rTcpC in PBS flowed over; Biacore T200. Conditions: both partners purified. (SPR reads the build-up and loss of mass on a sensor chip optically.)

For orientation: Kd means the constant that tells how readily two partners part at equilibrium.

B1: UBE2D1 (R&D) (enzyme)
chain: not shown
notes: UBE2D1 bought from R&D; No catalogue number is printed, so the species and construct of the bought protein are unknown; source: bought: R&D
Consider B1, for which the Kd in assay [1] was 763 nM; in assay [2], 17.2 nM.
